Tested on: Escherichia coli TOP10
Test: shrunken log2 fold change of peptide-encoding DNA abundance (4.5 h post-induction vs induction); higher = less antimicrobial activity (less host growth inhibition)
Settings: time post-induction: 4.5 h; library: site-saturation at positions 5, 18, 19, 20
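Further: peptides expressed intracellularly from a pBAD plasmid library in pooled LB shake-flask culture, induced with 0.3% L-arabinose, DNA abundance read by NGS, three biological replicates, DESeq2 with apeglm shrinkage.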

Row | Sequence | shrunken log2 fold change
1 | RRIRFRPPRLPRPRPRPCPRPRP | 0.0155
2 | RRIRFRPPRLPRPRPRPCQAPRP | -0.0302
3 | RRIRFRPPRLPRPRPRPCSAPRP | -0.103
4 | RRIRFRPPRLPRPRPRPCTNPRP | -0.598
5 | RRIRFRPPRLPRPRPRPCTRPRP | 0.0381
6 | RRIRFRPPRLPRPRPRPCWFPRP | -0.509
7 | RRIRFRPPRLPRPRPRPCWGPRP | 0.00445
8 | RRIRFRPPRLPRPRPRPCWIPRP | -0.354
9 | RRIRFRPPRLPRPRPRPCWYPRP | -0.225
10 | RRIRFRPPRLPRPRPRPDAHPRP | -0.0702
11 | RRIRFRPPRLPRPRPRPDCQPRP | 0.0422
12 | RRIRFRPPRLPRPRPRPDCWPRP | -0.0344
13 | RRIRFRPPRLPRPRPRPDDRPRP | 0.00835
14 | RRIRFRPPRLPRPRPRPDEMPRP | -0.0134
15 | RRIRFRPPRLPRPRPRPDFEPRP | 0.0453
16 | RRIRFRPPRLPRPRPRPDGEPRP | 0.0232
17 | RRIRFRPPRLPRPRPRPDHGPRP | 0.0405
18 | RRIRFRPPRLPRPRPRPDHMPRP | -0.585
19 | RRIRFRPPRLPRPRPRPDHTPRP | -0.318
20 | RRIRFRPPRLPRPRPRPDIFPRP | -0.396
21 | RRIRFRPPRLPRPRPRPDIKPRP | -0.602
22 | RRIRFRPPRLPRPRPRPDKDPRP | -0.393
23 | RRIRFRPPRLPRPRPRPDLIPRP | -0.0121
24 | RRIRFRPPRLPRPRPRPDMCPRP | 0.124
25 | RRIRFRPPRLPRPRPRPDMLPRP | -0.125

Row | Sequence | shrunken log2 fold change
26 | RRIRFRPPRLPRPRPRPDMWPRP | -1.03
27 | RRIRFRPPRLPRPRPRPDNTPRP | -0.491
28 | RRIRFRPPRLPRPRPRPDPLPRP | 0.165
29 | RRIRFRPPRLPRPRPRPDPQPRP | 0.0361
30 | RRIRFRPPRLPRPRPRPDPVPRP | 0.227
31 | RRIRFRPPRLPRPRPRPDQMPRP | -0.155
32 | RRIRFRPPRLPRPRPRPDQYPRP | -0.169
33 | RRIRFRPPRLPRPRPRPDRCPRP | -0.208
34 | RRIRFRPPRLPRPRPRPDRWPRP | 0.0556
35 | RRIRFRPPRLPRPRPRPDRYPRP | -0.0446
36 | RRIRFRPPRLPRPRPRPDSGPRP | -0.0156
37 | RRIRFRPPRLPRPRPRPDVQPRP | -0.0115
38 | RRIRFRPPRLPRPRPRPDWCPRP | -0.00301
39 | RRIRFRPPRLPRPRPRPDWYPRP | -0.0899
40 | RRIRFRPPRLPRPRPRPEAGPRP | 0.806
41 | RRIRFRPPRLPRPRPRPECGPRP | 0.175
42 | RRIRFRPPRLPRPRPRPECWPRP | 0.675
43 | RRIRFRPPRLPRPRPRPEDNPRP | -0.00777
44 | RRIRFRPPRLPRPRPRPEEMPRP | -0.00182
45 | RRIRFRPPRLPRPRPRPEEVPRP | 0.0815
46 | RRIRFRPPRLPRPRPRPEFKPRP | -0.0568
47 | RRIRFRPPRLPRPRPRPEHCPRP | -0.0154
48 | RRIRFRPPRLPRPRPRPEHGPRP | 0.00151
49 | RRIRFRPPRLPRPRPRPEIAPRP | -0.0213
50 | RRIRFRPPRLPRPRPRPEIPPRP | 0.163

Row | Sequence | shrunken log2 fold change
51 | RRIRFRPPRLPRPRPRPEKAPRP | 0.0584
52 | RRIRFRPPRLPRPRPRPEKTPRP | -0.00398
53 | RRIRFRPPRLPRPRPRPEKVPRP | -0.0394
54 | RRIRFRPPRLPRPRPRPEKWPRP | 0.109
55 | RRIRFRPPRLPRPRPRPELSPRP | 0.0455
56 | RRIRFRPPRLPRPRPRPEMHPRP | -0.195
57 | RRIRFRPPRLPRPRPRPENMPRP | -0.158
58 | RRIRFRPPRLPRPRPRPENTPRP | 0.003
59 | RRIRFRPPRLPRPRPRPENWPRP | 0.0986
60 | RRIRFRPPRLPRPRPRPEPRPRP | 0.81
61 | RRIRFRPPRLPRPRPRPEQKPRP | 0.341
62 | RRIRFRPPRLPRPRPRPEQRPRP | -0.0295
63 | RRIRFRPPRLPRPRPRPESFPRP | 0.0272
64 | RRIRFRPPRLPRPRPRPESGPRP | 0.0504
65 | RRIRFRPPRLPRPRPRPESKPRP | 0.183
66 | RRIRFRPPRLPRPRPRPESLPRP | 0.0896
67 | RRIRFRPPRLPRPRPRPESRPRP | 0.146
68 | RRIRFRPPRLPRPRPRPETAPRP | 0.577
69 | RRIRFRPPRLPRPRPRPETNPRP | 0.127
70 | RRIRFRPPRLPRPRPRPEVFPRP | 0.181
71 | RRIRFRPPRLPRPRPRPEVHPRP | -0.309
72 | RRIRFRPPRLPRPRPRPEYAPRP | -0.14
73 | RRIRFRPPRLPRPRPRPEYQPRP | -0.0212
74 | RRIRFRPPRLPRPRPRPFALPRP | -0.00558
75 | RRIRFRPPRLPRPRPRPFAYPRP | 0.0263

Row | Sequence | shrunken log2 fold change
76 | RRIRFRPPRLPRPRPRPFCTPRP | -0.19
77 | RRIRFRPPRLPRPRPRPFDIPRP | -0.182
78 | RRIRFRPPRLPRPRPRPFDKPRP | 0.00679
79 | RRIRFRPPRLPRPRPRPFEPPRP | -0.0506
80 | RRIRFRPPRLPRPRPRPFGTPRP | -0.587
81 | RRIRFRPPRLPRPRPRPFHKPRP | -1.02
82 | RRIRFRPPRLPRPRPRPFICPRP | -0.65
83 | RRIRFRPPRLPRPRPRPFIPPRP | -0.823
84 | RRIRFRPPRLPRPRPRPFKRPRP | -0.813
85 | RRIRFRPPRLPRPRPRPFLPPRP | -0.208
86 | RRIRFRPPRLPRPRPRPFMWPRP | -0.168
87 | RRIRFRPPRLPRPRPRPFPRPRP | -0.0288
88 | RRIRFRPPRLPRPRPRPFRLPRP | -0.197
89 | RRIRFRPPRLPRPRPRPFSDPRP | -0.229
90 | RRIRFRPPRLPRPRPRPFSLPRP | -0.375
91 | RRIRFRPPRLPRPRPRPFSRPRP | 0.184
92 | RRIRFRPPRLPRPRPRPFTNPRP | -0.125
93 | RRIRFRPPRLPRPRPRPFVLPRP | -0.532
94 | RRIRFRPPRLPRPRPRPFVWPRP | -0.0869
95 | RRIRFRPPRLPRPRPRPFWLPRP | 0.0058
96 | RRIRFRPPRLPRPRPRPFWMPRP | -0.254
97 | RRIRFRPPRLPRPRPRPFWSPRP | -0.0458
98 | RRIRFRPPRLPRPRPRPFYHPRP | -0.727
99 | RRIRFRPPRLPRPRPRPGAHPRP | -0.126
100 | RRIRFRPPRLPRPRPRPGCAPRP | 1.03

Row | Sequence | shrunken log2 fold change
101 | RRIRFRPPRLPRPRPRPGCIPRP | -0.241
102 | RRIRFRPPRLPRPRPRPGDQPRP | 0.0789
103 | RRIRFRPPRLPRPRPRPGDYPRP | -0.406
104 | RRIRFRPPRLPRPRPRPGEKPRP | 0.084
105 | RRIRFRPPRLPRPRPRPGERPRP | 0.266
106 | RRIRFRPPRLPRPRPRPGFRPRP | 0.0855
107 | RRIRFRPPRLPRPRPRPGGAPRP | 0.263
108 | RRIRFRPPRLPRPRPRPGHQPRP | -0.233
109 | RRIRFRPPRLPRPRPRPGKCPRP | -0.421
110 | RRIRFRPPRLPRPRPRPGKDPRP | -0.105
111 | RRIRFRPPRLPRPRPRPGKWPRP | -0.0163
112 | RRIRFRPPRLPRPRPRPGLCPRP | 0.606
113 | RRIRFRPPRLPRPRPRPGLIPRP | -0.0301
114 | RRIRFRPPRLPRPRPRPGMFPRP | 0.0382
115 | RRIRFRPPRLPRPRPRPGNHPRP | -0.0246
116 | RRIRFRPPRLPRPRPRPGNNPRP | -0.276
117 | RRIRFRPPRLPRPRPRPGNTPRP | -0.12
118 | RRIRFRPPRLPRPRPRPGNVPRP | 0.0145
119 | RRIRFRPPRLPRPRPRPGQEPRP | -0.0664
120 | RRIRFRPPRLPRPRPRPGQHPRP | 0.176
121 | RRIRFRPPRLPRPRPRPGQLPRP | -0.0429
122 | RRIRFRPPRLPRPRPRPGQRPRP | 0.686
123 | RRIRFRPPRLPRPRPRPGSFPRP | -0.0983
124 | RRIRFRPPRLPRPRPRPGSMPRP | -0.255
125 | RRIRFRPPRLPRPRPRPGTEPRP | 0.0589

Row | Sequence | shrunken log2 fold change
126 | RRIRFRPPRLPRPRPRPGVFPRP | -0.227
127 | RRIRFRPPRLPRPRPRPGVKPRP | -0.0657
128 | RRIRFRPPRLPRPRPRPGVPPRP | 0.0248
129 | RRIRFRPPRLPRPRPRPGWEPRP | 0.0875
130 | RRIRFRPPRLPRPRPRPGWLPRP | 0.129
131 | RRIRFRPPRLPRPRPRPGWQPRP | 0.188
132 | RRIRFRPPRLPRPRPRPGYPPRP | 0.0384
133 | RRIRFRPPRLPRPRPRPHDKPRP | -0.00198
134 | RRIRFRPPRLPRPRPRPHDQPRP | 0.0225
135 | RRIRFRPPRLPRPRPRPHDTPRP | -0.535
136 | RRIRFRPPRLPRPRPRPHEKPRP | -0.0136
137 | RRIRFRPPRLPRPRPRPHGMPRP | -0.00197
138 | RRIRFRPPRLPRPRPRPHGRPRP | 0.187
139 | RRIRFRPPRLPRPRPRPHHLPRP | -1.06
140 | RRIRFRPPRLPRPRPRPHKSPRP | -0.396
141 | RRIRFRPPRLPRPRPRPHLHPRP | -0.511
142 | RRIRFRPPRLPRPRPRPHLIPRP | -0.415
143 | RRIRFRPPRLPRPRPRPHMHPRP | -0.655
144 | RRIRFRPPRLPRPRPRPHMTPRP | -0.186
145 | RRIRFRPPRLPRPRPRPHNFPRP | -0.399
146 | RRIRFRPPRLPRPRPRPHPEPRP | -0.00858
147 | RRIRFRPPRLPRPRPRPHQWPRP | -0.0612
148 | RRIRFRPPRLPRPRPRPHRHPRP | -0.333
149 | RRIRFRPPRLPRPRPRPHRIPRP | -0.526
150 | RRIRFRPPRLPRPRPRPHRYPRP | -0.402

Source: the supplement of paper PMC9112550, “Optimization of the antimicrobial peptide Bac7 by deep mutational scanning” (BMC Biology, 2022)
